According to article PMC9426524:

Tested on: CC(=O)C=O
Assay: purified protein

## E. coli YajL (Escherichia coli K-12)
  Km: 95 ± 18 µM
